Measured values as given in patent publication US20030022244A1.

Biological target: mutant p53 protein
Test: method not stated

B1: ME1 single-chain antibody (scFv ME1) (scFv)
scFv: QVKLQQSGAELAKPGASVKMSCKTSGYTFTSYWMNWVKQRPGQGLEWIGYINPTTGYTKYNQKFKDKATLTADKSSSTAYMQLSSLTNVDSAVYYCTTGYSYFDYWGQGTTVTVSSGGGGSGGGGSGGGGSDIELTQSPAIMSASPGEKVTITCSASSSVNYMHWFQQKPGTSPKLWISSTSNLASGVPARFSGSGSGTSYSLTISRMEAEDAATYYCQQRSSYPYTFGGGTKLQIKRAAAGAPVPYPDPLEPRAA
  Kd: 100 nM
